Among the data in patent US20260008866A1 (published 2026) are Kd values, retold here.

Holding throughout (test): ForteBio Octet (BLI)
(In general: Biolayer interferometry detects binding as a change in optical thickness at a sensor tip.)

The target in experiment [1] is 20817.
Experiment [2] addresses 20814.
Experiment [3] addresses 20809.
The target of experiment [4] is 20807.
Experiment [5] concerns the target 20812.

B1: Human (ligand)
chain: LFTVTVPKELYIIEHGSNVTLECNFDTGSHVNLGAITASLQKVENDTSPHRERATLLEEQLPLGKASFHIPQVQVRDEGQYQCIIIYGVAWDYKYLTLKVKASYRKINTHILKVPETDEVELTCQATGYPLAEVSWPNVSVPANTSHSRTPEGLYQVTSVLRLKPPPGRNFSCVFWNTHVRELTLASIDLQSQMEPRTHPT
In general, Kd refers to the concentration at which binding is half-saturated. Lower therefore signals a tighter complex. In the case of B1, the Kd was 0.347 nM in experiment [1], 0.325 nM in experiment [2], 1.53 nM in experiment [3] and 0.58 nM in experiment [4].

B2: Cyno (Fc fusion)
chain: LFTVTVPKELYIIEHGSNATLECNFDTGSHVNLGAITASLQKVENDTSPHRERATLLEEQLSLGKALFHIPQVQVRDEGQYQCIIIYGVAWDYKYLTLKVKASYRKINTHILKVPETDEVELTCQATGYPLAEVSWPNISVPANTSHSRTPEGLYQVTSVLRLKPHPGRNFSCVFWNAQVRELTLASIDLQSQIEPRTHP
With B2, the Kd amounted to 0.283 nM in experiment [1]; 0.312 nM in experiment [5]; 0.31 nM in experiment [2]; 0.253 nM in experiment [3]; 0.25 nM in experiment [4].
